Patent publication US20260167699A1 (Chugai, published 2026)
Substitutions are numbered along the chain they refer to.

T1: FcγRIIa(R) (human, UniProt P12318 34-217)
T1 construct: extracellular domain; allotype R131; also called 2aR
T1 sequence: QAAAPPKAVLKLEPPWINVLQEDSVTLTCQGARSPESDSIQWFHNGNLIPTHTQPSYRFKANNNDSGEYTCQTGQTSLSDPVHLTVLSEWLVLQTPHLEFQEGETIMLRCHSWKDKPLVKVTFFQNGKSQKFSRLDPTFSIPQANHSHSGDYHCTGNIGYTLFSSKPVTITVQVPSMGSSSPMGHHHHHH

T2: FcγRIIa(H) (human, UniProt P12318 34-217)
T2 construct: extracellular domain; allotype H131; also called 2aH
T2 sequence: T1 sequence with R134H

T3: FcγRIIb (human, UniProt P31994 43-217)
T3 construct: extracellular domain; also called 2b
T3 sequence: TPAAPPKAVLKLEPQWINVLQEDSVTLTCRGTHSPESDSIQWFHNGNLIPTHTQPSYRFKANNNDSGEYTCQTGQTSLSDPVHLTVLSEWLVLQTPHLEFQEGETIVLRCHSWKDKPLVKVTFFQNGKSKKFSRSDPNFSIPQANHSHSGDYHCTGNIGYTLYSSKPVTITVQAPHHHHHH

B1: Kn125-L2b-3 (antibody, human IgG1, kappa)
heavy 1: QDQLVQSGAEVKKPGASVKVSCKASGFNIKDTYIQWVRQAPGQGLEWMGRIDPLRKQTKYREKFEGRVTITADTSTNTAYMELSSLRSEDTAVYYCVRSGREFDYWGQGTLVTVSSASTKGPSVFPLAPSSKSTSGGTAALGCLVKDYFPEPVTVSWNSGALTSGVHTFPAVLQSSGLYSLSSVVTVPSSSLGTQTYICNVNHKPSNTKVDKKVEPKSCDKTHTCPPCPAPELLGGPSVFLFPPKPKDTLMISRTPEVTCVVVDVSHEEPEVKFNWYVDGVEVHNAKTKPREEQYNSTYRVVSVLTVLHQDWLNGKEYKCKVSNDALPMPIEETISKAKGQPREPQVYTLPPSRCELTKNQVSLSCAVKGFYPSDIAVEWESNGQPENNYKTTPPVLDSDGSFFLVSKLTVDKSRWQQGNVFSCSVMHEALHNHYTQKSLSLSP
heavy 2: QDQLVQSGAEVKKPGASVKVSCKASGFNIKDTYIQWVRQAPGQGLEWMGRIDPLRKQTKYREKFEGRVTITADTSTNTAYMELSSLRSEDTAVYYCVRSGREFDYWGQGTLVTVSSASTKGPSVFPLAPSSKSTSGGTAALGCLVKDYFPEPVTVSWNSGALTSGVHTFPAVLQSSGLYSLSSVVTVPSSSLGTQTYICNVNHKPSNTKVDKKVEPKSCDKTHTCPPCPAPEYQWGPMVFLFPPKPKDTLMISRTPEVTCVVVDVSDEEGGSPEVKFNWYVDGVEVHNAKTKPREEQYNATYRVVSVLTVLHQDWLNGKEYKCKVSNKALPAPIEKTISKAKGQPREPQVCTLPPSRDELTKNQVSLWCLVKGFYPSDIAVEWESNGQPENNYKTTPPVLDSDGSFFLYSKLTVDKSRWQQGNVFSCSVMHEALHNHYTQKSLSLSP
light: DIQMTQSPSSLSASVGDRVTITCRASQDIHKYIAWYQQKPGQAPRLLIQYTSTLQPGVPSRFSGSGSGTDYTFTISSLQPEDIATYYCLQYEQLRTFGGGTKVEIKRTVAAPSVFIFPPSDEQLKSGTASVVCLLNNFYPREAKVQWKVDNALQSGNSQESVTEQDSKDSTYSLSSTLTLSKADYEKHKVYACEVTHQGLSSPVTKSFNRGEC
notes: heterodimerized anti-EREG antibody: altered H240-Kn125 chain (Gly/Ser peptide in loop) with H240-Hl076 and L73-k0
B2: Kn125-L2a-6 (antibody, human IgG1, kappa)
heavy 1: B1 heavy 1
heavy 2: QDQLVQSGAEVKKPGASVKVSCKASGFNIKDTYIQWVRQAPGQGLEWMGRIDPLRKQTKYREKFEGRVTITADTSTNTAYMELSSLRSEDTAVYYCVRSGREFDYWGQGTLVTVSSASTKGPSVFPLAPSSKSTSGGTAALGCLVKDYFPEPVTVSWNSGALTSGVHTFPAVLQSSGLYSLSSVVTVPSSSLGTQTYICNVNHKPSNTKVDKKVEPKSCDKTHTCPPCPAPEYQWGPMVFLFPPKPKDTLMISRTPEVTCVVVDVSDEGGSGGSEPEVKFNWYVDGVEVHNAKTKPREEQYNATYRVVSVLTVLHQDWLNGKEYKCKVSNKALPAPIEKTISKAKGQPREPQVCTLPPSRDELTKNQVSLWCLVKGFYPSDIAVEWESNGQPENNYKTTPPVLDSDGSFFLYSKLTVDKSRWQQGNVFSCSVMHEALHNHYTQKSLSLSP
light: B1 light
notes: as for B1
B3: Kn125-L2b-6 (antibody, human IgG1, kappa)
heavy 1: B1 heavy 1
heavy 2: B2 heavy 2 with G269E, S271G, G272S, S274G, E275S
light: B1 light
notes: as for B1
B4: Kn125-L2a-9 (antibody, human IgG1, kappa)
heavy 1: B1 heavy 1
heavy 2: QDQLVQSGAEVKKPGASVKVSCKASGFNIKDTYIQWVRQAPGQGLEWMGRIDPLRKQTKYREKFEGRVTITADTSTNTAYMELSSLRSEDTAVYYCVRSGREFDYWGQGTLVTVSSASTKGPSVFPLAPSSKSTSGGTAALGCLVKDYFPEPVTVSWNSGALTSGVHTFPAVLQSSGLYSLSSVVTVPSSSLGTQTYICNVNHKPSNTKVDKKVEPKSCDKTHTCPPCPAPEYQWGPMVFLFPPKPKDTLMISRTPEVTCVVVDVSDEGGSGGSGGSEPEVKFNWYVDGVEVHNAKTKPREEQYNATYRVVSVLTVLHQDWLNGKEYKCKVSNKALPAPIEKTISKAKGQPREPQVCTLPPSRDELTKNQVSLWCLVKGFYPSDIAVEWESNGQPENNYKTTPPVLDSDGSFFLYSKLTVDKSRWQQGNVFSCSVMHEALHNHYTQKSLSLSP
light: B1 light
notes: as for B1
B5: Kn125-L2b-9 (antibody, human IgG1, kappa)
heavy 1: B1 heavy 1
heavy 2: B4 heavy 2 with G269E, S271G, G272S, S274G, G275S, S277G, E278S
light: B1 light
notes: as for B1
B6: Kn125-L4-3 (antibody, human IgG1, kappa)
heavy 1: B1 heavy 1
heavy 2: QDQLVQSGAEVKKPGASVKVSCKASGFNIKDTYIQWVRQAPGQGLEWMGRIDPLRKQTKYREKFEGRVTITADTSTNTAYMELSSLRSEDTAVYYCVRSGREFDYWGQGTLVTVSSASTKGPSVFPLAPSSKSTSGGTAALGCLVKDYFPEPVTVSWNSGALTSGVHTFPAVLQSSGLYSLSSVVTVPSSSLGTQTYICNVNHKPSNTKVDKKVEPKSCDKTHTCPPCPAPEYQWGPMVFLFPPKPKDTLMISRTPEVTCVVVDVSDEEPEVKFNWYVDGVEVHNAKTKPREEQYNATYRVVSVLTVLHQDWLNGKEYKCKVSNKGGSALPAPIEKTISKAKGQPREPQVCTLPPSRDELTKNQVSLWCLVKGFYPSDIAVEWESNGQPENNYKTTPPVLDSDGSFFLYSKLTVDKSRWQQGNVFSCSVMHEALHNHYTQKSLSLSP
light: B1 light
notes: as for B1
B7: Kn125-L4-9 (antibody, human IgG1, kappa)
heavy 1: B1 heavy 1
heavy 2: QDQLVQSGAEVKKPGASVKVSCKASGFNIKDTYIQWVRQAPGQGLEWMGRIDPLRKQTKYREKFEGRVTITADTSTNTAYMELSSLRSEDTAVYYCVRSGREFDYWGQGTLVTVSSASTKGPSVFPLAPSSKSTSGGTAALGCLVKDYFPEPVTVSWNSGALTSGVHTFPAVLQSSGLYSLSSVVTVPSSSLGTQTYICNVNHKPSNTKVDKKVEPKSCDKTHTCPPCPAPEYQWGPMVFLFPPKPKDTLMISRTPEVTCVVVDVSDEEPEVKFNWYVDGVEVHNAKTKPREEQYNATYRVVSVLTVLHQDWLNGKEYKCKVSNKGGSGGSGGSALPAPIEKTISKAKGQPREPQVCTLPPSRDELTKNQVSLWCLVKGFYPSDIAVEWESNGQPENNYKTTPPVLDSDGSFFLYSKLTVDKSRWQQGNVFSCSVMHEALHNHYTQKSLSLSP
light: B1 light
notes: as for B1
B8: GpH7-A5/GpH7-B3 variant S337_08L/GpL16-k0 (antibody, human IgG1, kappa)
heavy 1: not shown
heavy 2: not shown
light: DIVMTQSPLSLPVTPGEPASISCQASESLVHSNRNTYLHWYLQKPGQSPQLLIYKVSNRFSGVPDRFSGSGSGTDFTLKISRVEAEDVGVYYCSQNTHVPPTFGQGTKVEIERTVAAPSVFIFPPSDEQLKSGTASVVCLLNNFYPREAKVQWKVDNALQSGNSQESVTEQDSKDSTYSLSSTLTLSKADYEKHKVYACEVTHQGLSSPVTKSFNRGEC
notes: Heterodimerized anti-glypican 3 IgG1 antibody with the mutation in only one H chain (GpH7-B3 side); also called He Ab
B9: GpH7-A5/GpH7-B3 variant S337_07I/GpL16-k0 (antibody, human IgG1, kappa)
heavy 1: not shown
heavy 2: not shown
light: B8 light
notes: as for B8
B10: GpH7-A5/GpH7-B3 variant S337_11K/GpL16-k0 (antibody, human IgG1, kappa)
heavy 1: not shown
heavy 2: not shown
light: B8 light
notes: as for B8
B11: GpH7-A5/GpH7-B3 variant S337_14T/GpL16-k0 (antibody, human IgG1, kappa)
heavy 1: not shown
heavy 2: not shown
light: B8 light
notes: as for B8
B12: GpH7-A5/GpH7-B3 variant S337_15Y/GpL16-k0 (antibody, human IgG1, kappa)
heavy 1: not shown
heavy 2: not shown
light: B8 light
notes: as for B8

Target: T4, FcγRIIIaV (human, UniProt P08637 17-208)
T4 construct: extracellular domain
Test: SPR (Biacore), antibody captured, FcγR as analyte, 1:1 Langmuir fit
Experimental: The antibody of interest was analyzed for its interaction with FcγR using a BiaCore™ T100, BiaCore™ A100, or BiaCore™ 4000 surface plasmon resonance system (GE Healthcare Japan Corp.). The running buffer used was HBS-EP+ (GE Healthcare Japan Corp.). The assay temperature was set to 25° C. The sensor chips used were: a chip prepared by immobilizing antigenic peptides onto Series S Sensor Chip CM5 (GE Healthcare Japan Corp.) by the amine coupling method; a chip prepared by immobilizing antigenic peptides biotinylated in advance onto Series S Sensor Chip SA (certified) (GE Healthcare Japan Corp.) through their interaction; a chip prepared by immobilizing protein L (ACTIGEN, BioVision, Inc.) onto Series S Sensor Chip CM5 (GE Healthcare Japan Corp.); and a chip prepared by immobilizing protein A/G (Thermo Fisher Scientific K.K.) onto Series S Sensor Chip CM5 (GE Healthcare Japan Corp.). The antibody of interest was captured onto any of these chips and allowed to interact with FcγR diluted with a running buffer. The antibody captured on the chip was washed off through the reaction of 10 mM glycine-HCl (pH 1.5) to regenerate the chip, which was repetitively used.

T4 sequence (P08637 other isoform, or with tags, fused parts or gaps): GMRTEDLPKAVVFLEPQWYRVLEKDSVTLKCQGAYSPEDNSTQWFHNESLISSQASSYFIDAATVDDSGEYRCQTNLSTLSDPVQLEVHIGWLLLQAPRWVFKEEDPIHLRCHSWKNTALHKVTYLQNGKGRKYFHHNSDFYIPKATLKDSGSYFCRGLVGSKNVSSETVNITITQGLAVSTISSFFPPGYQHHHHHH

| Binder | Kd [nM] |
| --- | --- |
| B1 | 7.8 |
| B2 | 9.2 |
| B3 | 6.3 |
| B4 | 11 |
| B5 | 7 |
| B6 | 6.9 |
| B7 | 1.7 |

Target: T5, FcγRIa (human, UniProt P12314 16-292)
T5 construct: extracellular domain; also called 1a
Test: SPR (Biacore), antibody captured on chip, FcγR as analyte; relative to GpH7-A5/GpH7-B3/GpL16-k0 = 100

T5 sequence (P12314 other isoform, or with tags, fused parts or gaps): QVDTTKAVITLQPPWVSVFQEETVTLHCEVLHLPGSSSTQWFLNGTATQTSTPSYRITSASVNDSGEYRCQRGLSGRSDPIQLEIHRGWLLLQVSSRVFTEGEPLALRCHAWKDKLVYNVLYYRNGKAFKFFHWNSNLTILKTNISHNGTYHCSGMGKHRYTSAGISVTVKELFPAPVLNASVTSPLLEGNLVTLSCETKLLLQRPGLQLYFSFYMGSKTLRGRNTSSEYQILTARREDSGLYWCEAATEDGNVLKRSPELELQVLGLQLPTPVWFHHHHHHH

| Binder | He/Con 1a (binding activity relative to GpH7-A5/GpH7-B3/GpL16-k0 x 100) |
| --- | --- |
| B8 | 102 % of control |
| B9 | 102 % of control |
| B10 | 101 % of control |
| B11 | 102 % of control |
| B12 | 101 % of control |

Target: T1, FcγRIIa(R)
Test: as above

| Binder | He/Con 2aR (binding activity relative to GpH7-A5/GpH7-B3/GpL16-k0 x 100) |
| --- | --- |
| B8 | 109 % of control |
| B9 | 111 % of control |
| B10 | 105 % of control |
| B11 | 112 % of control |
| B12 | 107 % of control |

Target: T2, FcγRIIa(H)
Test: as above

| Binder | He/Con 2aH (binding activity relative to GpH7-A5/GpH7-B3/GpL16-k0 x 100) |
| --- | --- |
| B8 | 106 % of control |
| B9 | 107 % of control |
| B10 | 102 % of control |
| B11 | 110 % of control |
| B12 | 106 % of control |

Target: T3, FcγRIIb
Test: as above

| Binder | He/Con 2b (binding activity relative to GpH7-A5/GpH7-B3/GpL16-k0 x 100) |
| --- | --- |
| B8 | 109 % of control |
| B9 | 113 % of control |
| B10 | 103 % of control |
| B11 | 114 % of control |
| B12 | 109 % of control |

Target: T6, FcγRIIIa (human, UniProt P08637 17-208)
T6 construct: extracellular domain; also called 3a
Test: as above

T6 sequence (P08637 other isoform, or with tags, fused parts or gaps): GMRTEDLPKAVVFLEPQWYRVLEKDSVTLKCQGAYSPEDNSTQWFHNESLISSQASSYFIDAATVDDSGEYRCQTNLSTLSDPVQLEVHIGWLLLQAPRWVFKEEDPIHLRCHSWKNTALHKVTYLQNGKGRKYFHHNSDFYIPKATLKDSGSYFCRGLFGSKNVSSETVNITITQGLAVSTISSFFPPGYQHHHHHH

| Binder | He/Con 3a (binding activity relative to GpH7-A5/GpH7-B3/GpL16-k0 x 100) |
| --- | --- |
| B8 | 90.2 % of control |
| B9 | 88.3 % of control |
| B10 | 80.1 % of control |
| B11 | 94 % of control |
| B12 | 94.9 % of control |
